Experimental data as given in the supplement of paper PMC9170038.

Test system: K4 kissing-loop RNA reporter
Assay: apparent KD of K4 kissing-loop reporter; higher = weaker reporter binding
Settings: Eterna round: R107
Method: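 RNA-MaP round R107: designed RNA switches with theophylline, tryptophan, arginine or FMN aptamers are transcribed on-chip within common flanks. They are titrated with a labelled K4 kissing-loop RNA reporter in RNA-MaP buffer (100 mM Tris pH 7.5, 80 mM KCl, 4 mM MgCl2), without ligand or with the indicated ligand. Median apparent KD per design.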

[1] = input ligand: theophylline 20 uM
[2] = input ligand: tryptophan 2.4 mM
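Note: bound reporter read as fluorescence of individual clusters on recovered sequencing chips by microscopy, with normalized cluster intensities fitted with a binding model.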

Sequence | apparent KD of K4 kissing-loop reporter (input ligand: FMN 200 uM) [nM] | apparent KD of K4 kissing-loop reporter (input ligand: arginine 13.2 mM) [nM] | apparent KD of K4 kissing-loop reporter (input ligand: none) [nM] | apparent KD of K4 kissing-loop reporter [1] [nM] | apparent KD of K4 kissing-loop reporter [2] [nM]
AGAGUUUUAUGAGGAUAUGAGAUAGUUAAUGAGUGAGUUAUAGUGUAGUUUGUUUAGUGAUGUUAUUUAGAAGGCGUGAGUGAUG [ssxsmullin] | 151 | 95.9 | 122 | 132 | 84.4
AAUGGCGAGUGAUGUUCGCCCACCAAUGAUACCAGUGCCAUCGGACACCCUUGGCAGCAUACGGGCAGUGAUGUUGCUCUUGGAA [Exclusion Theophylline A GF 26] | 185 | 181 | 193 | 200 | 177
AAAGUAUACUGAAGGAGCGAGUAGUGGAAACAUAAACUCAUUGCGAGUGAUGUUCGCAGUACUCAGGUAGGUCGCGGUAAUCGUA [Exclusion Arginine B Gf 12] | 499 | 498 | 934 | 554 | 558
GGAGGAGAAUAUGAUACCAGCAGAGAGAGAGAGGAAGUAUAGUGAUGUUAUAUGAGAGAAUGCCCUUGGCAGCAUAAGACGCAGG [#07 K4 Theophylline B Same State] | 194 | 114 | 110 | 144 | 94.7
AUAGUGAGCUCGGCCGCCACUCCACUAUGUCAACAGUAGCUCUGUCAUAACCAGUGAUGUUGGUUGAGGACCGGGAGUUAAGACU [theeternabot_exclusion_KL_Trp_B_34] | 193 | 164 | 198 | 195 | 201
CCCAAGGGCCUACCGGUAUUAUUAACGGAUACCAGAGGCGAAAGCCUCCCUUGGCAGCCGGGUGUAGUGAUGUUACUCCGGUAGU | 83.4 | 64.7 | 70.2 | 63.2 | 78.1
CCAUCGCUAUUCGAUACCAGCUCCUUAGUGAUGUUAAGGUUUUACCCUCUGUAGGAGGGAAGCCCUUGGCAGCGAGUAGUGAUGG [#03 K4 Theophylline B Same State] | 1270 | 802 | 948 | 623 | 1370
UGUACCGAGUCAGGAUAUGGCGUCGAAAGACGAAUCUUAGUGAUGUUAGGGAUCUGCGAAAGCAGUCCAGAAGGGACUUGGUACU [FmnBS 26 U37] | 568 | 583 | 768 | 605 | 902
AGGAGUGAUGUUCCUACAUACACGGUCCGACGAGGACCGGUACGGCCGCCACUCGCGUCCCAGUGAUGUUGGGAUUUGGCGUACG [Exclusion Tryptophan A GF 17] | 162 | 155 | 155 | 171 | 154
CUCGAGUGAUGUUCGAUUAUUUAUACAGAUACCAGUGAAUUUUAACACCCUUGGCAGCUGGUUGUAUCAUUGUUUUUUACAAAAG [JR_ExcTheophyA_Sub007] | 113 | 167 | 117 | 195 | 100
UAUUAAUUGUCAGGAUAUCGUAUUCGAGUGAUGUUCGUAUAUCGACGAUAGUCGAUUCUAUCUAUACGAGAAGGGACAUUAUUUA [JR_SSFMNB_Sub007] | 801 | 711 | 1090 | 804 | 755
UGUCAUUGGUCGGCCGCCACUAGGACCGGGUAUAGCCUAGUGAUGUUAGUAAGUACGGCCGCCACUAGGACCGGGACCGAUGACU [KL-SSTryp-B21 #DoubleAptamer] | 742 | 57 | 591 | 674 | 131
GGAUAGGAUAGAGGAUAUGGGUUAGGCAAGAAUAACUUGUCUAGUAAAUCCAUGAGGAGUGAUGUUCCAGAAGGCUGUCCUAUCG [MatMod 4 - Jieux - Exclusion - FMN B] | 429 | 125 | 117 | 127 | 98.3
CCUGCAGCUGUUACCGAGGGAUGCUACGGACGAGGACCGGUACGGCCGCCACUCGCCAGUGAUGUUGGUGAGGGAGGACGUUCCU [Georte] | 100 | 106 | 150 | 172 | 148
CCGUGGAGUGAUGUUCCACGUUCUACGGAUACCAGUUGUGCCAGCGGCCCUUGGCAGCCGCACCUUGCAGUGAUGUUGUGAGGCU [Same State Theophylline A Gf 6] | 238 | 210 | 225 | 229 | 198
UUAGAUCUUCUAGAUACCAGUCUGUGUAUCAAUGAUACACUUGACUGAGUGAUGUUCAGAGGCCCUUGGCAGCUAGAAGAUCAUU [AK1 SS Theophylline B] | 761 | 473 | 727 | 849 | 490
AUUCGUUUUUGUGAUACCAGACAUGUGAGUGAUGUUUACAUAUAUAUUUAAUAUUUAGCUGUCCCUUGGCAGCACUGUUUAUUUA [JR_ExcTheophyB_Sub003] | 343 | 384 | 393 | 444 | 291
UCCUAGGCUCGAAAGAGCCUAGGUUAGACUCAGGAUAUCUGGAAACAGAGAAGGGAGCUACUAGUGAUGUUAGGAAUUCCCAUUU | 102 | 85.7 | 97.5 | 88.5 | 95.6
CGAGUGAUGUUCGUUUUUUUAUUUUUUUGACAGGAUAUGCGGAAACGCAGAAGGGUCACCUUUGAGUUAAAAGAAUUUAAAUUAU [Ex FMN A 23] | 278 | 208 | 254 | 213 | 193
CCGGCCCAGCCGGAUACCAGUGCGCCGCAGGGAACGGCGGGCCCAGAGUGAUGUUCGGGACACCCUUGGCAGCCGCCUGGGUCGU [#2 Same State - Theophylline B Attempt #28 (HarryS)] | 414 | 262 | 365 | 258 | 274
UGGGCCGCCUGAGGAUAUAGAGACGAGUGAUGUUCGUGGAUCAGAGCCAGUGAUGUUGGGUUAUUUCUAGAAGGCGGGCGAACUU [Exclusion FMN B GF10] | 116 | 112 | 120 | 118 | 120
GGUAGCAUGGCGGCCGCCACUACUGACAGCUGUCUGUUCUGGGUACCAGGGAGUGAUGUUCCCGGUAGGACCGGGCCAUGCUACC | 135 | 106 | 114 | 112 | 266
